Assay results from the DeepSol protein solubility set.

test: soluble on expression in E. coli; label from the status in PepcDB or PDB records

Sequence | soluble on expression in E. coli
MVINCAFIGFGKSTTRYHLPYVLNRKDSWHVAHIFRRHAKPEEQAPIYSHIHFTSDLDEVLNDPDVKLVVVCTHADSHFEYAKRALEAGKNVLVEKPFTPTLAQAKELFALAKSKGLTVTPYQNRRFDSCFLTAKKAIESGKLGEIVEVESHFDYYRPVAETKPGLPQDGAFYGLGVHTMDQIISLFGRPDHVAYDIRSLRNKANPDDTFEAQLFYGDLKAIVKTSHLVKIDYPKFIVHGKKGSFIKYGIDQQETSLKANIMPGEPGFAADDSVGVLEYVNDEGVTVREEMKPEMGDYGRVYDALYQTITHGAPNYVKESEVLTNLEILERGFEQASPSTVTLAKLEHHHHHH | soluble
MRDALHVTADDADATDDAIPDSRETGVTGVVLAGGLSTRLGHDKAVIRLHGEQGPDLLVRTAALLEPLVDEVWISCRPGRCVTGPYLRIYDEVQGLGPFGGVMTALRAAQGPVLVLSCDLPFMERTLLERLLERRGARHPEALMTTFRQEETGFIESLVAVYEYACLPFFEDALTDGVHKLSRVIPAERREDIVYTQNEALPFFNVNYPADLEMARRIIGALLEHHHHHH | not soluble
MSLKFEKFICNLRQFTLTNGLKRSIAIISLVDKKGNISKGEVAPLPPWSKETLEEAIRQIDAKKSFILNIDWTIENYRDALMHLHLFPSVQFGIESALLSFLDPLKTYSIPVSALLMGSKKEILAQAKLRLQEGYQIAKLKVSQLSFSDAAKLIHQLKDTFRLRIDVNRAWKTEDSLQFFSEYSLDSFDYVEEPFQNPKELSLFSHPLAVDESFPSNFSLQDLETLCSLKSLIYKPTLQGGMTTCLPVYKWAKQRNIEFVLSSSFESELGLSHLISMAARLKLTSPIGIGTYHFLPQTEGPFLISNGQVNLKNLEGHHHHHH | not soluble
MSFSRRPKVTKSDIVDQIALNIKNNNLKLEKKYIRLVIDAFFEELKSNLCSNNVIEFRSFGTFEVRKRKGRLNARNPQTGEYVKVLDHHVAYFRPGKDLKERVWGIKG | soluble
MEFGVPRERSGGEIPERRVPLTPQGVRELVASGHRVYVERGAGEGAGFPDEAYEEAGARLVGREEAFGRPQVVLKVARPTLEEVGLMRKNAVLMAFLHLAVAESPLVEAMAQKGLTAIGYELVGEEGRRPVLKAMSEIAGRMAPQLAGRLLEAPQGPGILLSGLVGIPPADVVVLGAGVLGRAAARAFLGAGASVHLLDRALPPLEEAAREAPGAITALVTQDRLERYVAFADVLVGAVAVPGERTPLLLTRGLLARMRPGSVLLDFSIDQGGVSETSRPGVYQEMGVTHFCLPNVPALVPRTASHALTLTLLPYLLRIQEDPLALPGLRQGAYLLFGEKGGHLE | soluble
MGSDKIHHHHHHVSKPHYKTTNWKQYNQALINRGSLTFWIDEDAIAKWKAKVEQPKKGRPRVFSDLAITTALMVKRIFSMPLRALQGFINSVFKLGDIPLSCPHYTCISKRAKTVNIAFKTKTRGAIKHLAIDSTGLKVYGEGEWKVKKHGTDGKRRVWRKLHIAVDTHSHEIIAAELSLSGVTDAEVMPNLLKQTHRKIRNISGDGAYDTKACHEAVRRKRALVLIPPREGAALWEQGHPRNLAVSWQQLHGSNKQWKKRYGYHRRSISETAMYRIKQLLGGTLSMRNYNAQVGETYAMIRALNKLTGLGMPETHYVA | not soluble
SWQSYVDDHLMCDVEGNHLTAAAILGQDGSVWAQSAKFPQLKPQEIDGIKKDFEEPGFLAPTGLFLGGEKYMVIQGEQGAVIRGKKGPGGVTIKKTNQALVFGFYDEPMTGGQCNLVVERLGDYLIESEL | soluble
VKNPSLICAPVMADSIDKMVIETSKAHELGADLVEIRLDWLKDFNPLEDLKTIIKKSPLPTLFTYRPKWEGGQYEGDENERRDVLRLAMELGADYIDVELQVASEFIKSIDGKKPGKFKVIVSSHNYQNTPSVEDLDGLVARIQQTGADIVKIATTAVDIADVARMFHITSKAQVPTIGLVMGERGLMSRILCSKFGGYLTFGTLDSSKVSAPGQPTIKDLLDLYNFRRIGPDTKVYGIIGKPVSHSKSPIVHNQAFKSVDFNGVYVHLLVDNLVSFLQAYSSSDFAGFSCTIPHKEAALQCCDEVDPLAKSIGAVNTILRRKSDGKLLGYNTDCIGSISAIEDGLRSSGDPSSVPSSSSPLASKTVVVIGAGGAGKALAYGAKEKGAKVVIANRTYERALELAEAIGGKALSLTDLDNYHPEDGMVLANTTSMGMQPNVEETPISKDALKHYALVFDAVYTPRITRLLREAEESGAITVSGSEMFVRQAYEQFEIFTGLPAPKELYWQIMSKYGSRENLYFQ | soluble
MPKETFFNLPKDKRNLIISAAMDEFSKAGYNTASINQICKKSNIPKGSFYQYFTDKLDLYVYIMTLTIEEKIKFFSSAIAEFHTLTFLEQFRLLFLKGLEFAKKHPQYAALADQFSKEDNESVKSAVIKEGDKQAESLFMQMIHNAKTKGEIDSKVDSLALCLLLQSLNSAVNKYMIGKFGGISYEYNQEDINNFVDSLLDIIFSGIQNKAD | not soluble
MSLTNQVTYLFFHGMKQISEHLFTTEEQAIIARSKAEGSYMKAPNGQATNLNKKQWAQVRTRAFREWFGDWENNPDEASKVRDANGEPLVVYHGTPISRDQAADRSKFRIADDWEIQTINAPFHTFRGGAYNGLIFTSLTEEKARSIGETRSMSIPDSEDGREQWTTDSYVYDLFVNARQPFDVKNPNAVKDILDALEGQLTAYDFYLGMEVPVSRKEAEKILEGGNSWRVVETPSMQEIIRSRGYDAIHALDEGVQYMAVFAPNQLKASGKYLYSERNTGVFSPGNNDIRFREVHHGVPASFTGYRSMKTETVRNDNIPAVLAALREKLEDTEQEWQDRILDYIAENYPTQTTVSAQTRSPEGLKEREAMKKDKTLRKMKEEAVAALNAADEKVMEAFKKENGDILFREVKENDGGKSLVGLHNISEEKLLKALKLGGLANPSAAVIDIARQSHEGYGEISLILPSSMIDKRTGRNAGTFSGDAWTPVYPQIERQFSGDGSGRVRDAISRLPQEMQPNVRSAWNSYMDGRDEGSAFAYQFLYERGEAPEFRKIEPLFGEHLRNRISAIDALDDYDERNTALLEVYIEENFGGDQTKFKDYIETRKRVLQDKEGHHHHHH | not soluble
MSLKDEYTTSFGIRTIEVIPNKGFFLNGKRTSFKGVCNHHDLGPLGGAVNDAAIRRQIRILKDMGCNAIRTSHNMPAPELIRACDEMGMMVMAESFDEWKAMKVKNGYRHVFDEWAVKDLTNLLRHYRNNPSVVMWCIGNEVPEQWDGNKGPKMSYFLQELCHREDPTRPVTQGMDAPDAVVNNNMAAVMDIAGFNYRPHKYQENYKKLPQQIVLGSETASTVSSRGVYKFPVTRQWMKKYDDHQSSSYDVESCSWSNLPEDDFIQHEDLPYCIGEFVWTGFDYLGEPTPYYTDWPSHSSLFGIIDLAGLPKDRYYLYRSHWNKEQETLHILPHWNWEGREGEITPVFVYTNYPSAELFINGKSQGKRTKDLSVTIDNSADSVSIMNLKRQSRYRLMWMDTKYEPGTVKVVAYDADGKAVAEKELHTAGKPDHIELVADRNVIKADGKDLSFVTVRVVDRDGNLCPDASHEISFKVKGEGSYRAGANGNAASLESFQHPKMKVFSGMMTAIVSSTEQPGKITLEATGKGLKKGALIIESCQEAKEGHHHHHH | not soluble
MEKTLETVPLERKKREKEQFRKLFIGGLSFETTEESLRNYYEQWGKLTDCVVMRDPASKRSRGFGFVTFSSMAEVDAAMAARPHSIDGRVVEPKRAVAREESG | soluble
GPGSMDLNMRLLTRIFTYRRNHAEQGTIMSSKIAELSGRILSQQQYSQILEQRRWLQGLLKEVSLDMGAKEKEKSASPVVLPYGSIVSGTSFKDGDADYIVSFPIVSESTRQSGACVIDRERQEKFLSDIFSHIRKRNSDVELHPQRIFRARVPIVQYVRKSGQESARFDLSLSLDGLKNSLLLRQYMAGDPRLRLGVLGAKQWGREQQILNARRGWISPYALSIMYIHYMKETGRTALSFDEEAVSQRVNAIVSTAAESEGDISHVDELASILPLQEADMLLVEKDVFDFFAFYGTPGGFDFDASVVDIRSRERFSSKDQWCQLLDQLDERERWNLLGHEVILLRDPFEPHSLGRSVDFFRGEEIRERFRSAAVRKEPLSLFAFL | not soluble
MGSSHHHHHHSSGRENLYFQGHMPSNLNIVKVTKPQEENKNFLHKNTNEPNEMEQSQTQEAVTENFTENSNLSANEHAARRGRLNLKTVDHIETYPIVQETEEIAKKIALTRIILAQTKPRIDKVVVSRPVQAVAPVVNFFDKMANSTLSTVERVVPSLKTKTYKRLGEEIALPYTLSKKYGKQLRDTTARNGDNYVYQPVHGRLMKFRKYYNEKFIDTKGKPLIRGQLDPVLLPVNNTFEKVTVKYLPKGKKVPNDSFSCEFNRGLALEYNFMTRAVSAVSHQVVGIAKLPIAYGYHTNSVYNKNLDKQADLKMKNVLRGTWDTITDLEREIWASVTDRSLFRFFGNKSEGGDLPHLVQ | soluble
MAHHHHHHMTAHHALLLGSLVDDVDLSVRRGAQADTLTVDGAADRLLSAIASYTKSAAATDVDVEDNGEAAQETAALSLMAHMQRLSLLCNAARTPETSCTSAGEDNIHKCVDDWAKWLLGLESKPIVLASKVALCLPPLQACWRGGSALDGAGSAHIDRIEEAIGSFFAHAARRCVTEWTTHGAPLRTLLPPLALLTTYARFRWAWSRFTELRHVGGGEHLGEAEGGIAVVGSSDTVQRQENRDIDFLGIAGEVESCHAAKLTREVLLHSLKTIDWRVGSAVPAVKEVAPLFWCVFLRCRSYALHSCSQCRSSSSDFFAHEASARLVAQVLRCTVDGVRLCIERQAADMHVARARQLCTCDIPCLVLLTRLWFSWIALATDAAAVLLPRLERSLRQLVSSVVKLRGGAETKPPPSSVAAALAENSAEASWTEQETLFVEVAWKVAPLSMSEIASATAAVPWTSEFVRASEVQAVLEKRTLVAPVP | not soluble
MGSDKIHHHHHHMSMVSSGNYAEVEKVLTEYPYIAELADHLRDQKMKVIENLDSYVSLTIKNVERLGGHAYLAKDKEEARKIAGDLVGDNKTVVFSKTNVAYEIGLREYLESKHNEVWETDLGEYLIQISKGWPTHIVAPALGMTREDAAKAVKKIDPSINENSTIEDVVAAVRKFLMSKYVKADVGITGANAVAADSGAIALVENEGNIRIDTVMPQTHISITGIDKIVPTLRDALDEVMVQSAYAGLFPPTYINVTAGPSSTADIELRRVSPATGPKNFHLILLDDGRMDASKDEGLKEALLCIKCGRCYFSCPIYRVLGKEWVSTKSPYNGPTGVMWNYITNKDPWPASYCVHSGGCKEVCPMRINIPEVIKYIKYLGSKSL | not soluble
PHFLILNGPNVNRLGSREPEVFGRQTLTDIETDLFQFAEALHIQLTFFQSNHEGDLIDAIHEAEEQYSGIVLNPGALSHYSYAIRDAVSSISLPVVEVHLSNLYAREEFRHQSVIAPVAKGQIVGLGAEGYKLAVRYLLSQQG | soluble
MSGKEPLNPNPVIASGRKCRLKDSSDGIFRKGRDALEKTAFQAGILFARQRGGIGRAGKRTGGGSFMPSESPPLRLFAKKVGKGTYNPVQSSINI | not soluble
MTVSGPGTPEPRPATPGASSVEQLRKEGNELFKCGDYGGALAAYTQALGLDATPQDQAVLHRNRAACHLKLEDYDKAETEASKAIEKDGGDVKALYRRSQALEKLGRLDQAVLDLQRCVSLEPKNKVFQEALRNI | soluble
MSLNTRRLLDLSVTLDNNPYTDPPPLLPKIDYMDHQQGWPEMAAMFPGLRKEDLPGDESWAAERLQITTHSGTHMDAPWHYASTTDGGKPAFGIDELPLEWCLQPGVKLDFRHLPDGHVVTAAQVEAELARIGHELQPLDIVLVNTRAGSLFGQPGYLEAGVGMGREATLYLLERGVRVVGTDAWSWDAPFKFTRERFSETGDASIIWEGHKAGRDIGYGQMEKLANLEQLPADGFLVSCFPYKIRHASAGFVRAVAIFDLEHHHHHH | soluble
